According to patent publication US20250243281A1 (IMMUNITAS THERAPEUTICS, published 2025):
Positions count from the first letter of the chain named. Where two headings read alike, the source gives them in different places. Values belong to the binder of their own block, whether it stands above or below them.

Key:
[1] = biological target: T1, hKLRF1 (human, UniProt Q9NZS2 1-231); assay: flow cytometry; 100 nM antibody on HEK293 cells expressing KLRF1; Alexa Fluor 647 anti-human IgG; MFI
T1 construct: Overexpressed on HEK293 cells
T1 sequence: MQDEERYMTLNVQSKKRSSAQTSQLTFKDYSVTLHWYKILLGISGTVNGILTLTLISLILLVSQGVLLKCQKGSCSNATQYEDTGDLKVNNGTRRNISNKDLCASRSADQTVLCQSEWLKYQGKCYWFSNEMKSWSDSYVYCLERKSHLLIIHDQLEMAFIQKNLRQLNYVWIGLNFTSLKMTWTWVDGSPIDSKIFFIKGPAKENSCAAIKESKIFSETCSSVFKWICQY
Method: (§1) For the antibody binding assay, all cell lines were washed in phosphate-buffered saline with 0.1% bovine serum albumin (PBSA) and seeded in a 96 well plate at a density of 4×10⁴ cells per well. Washed cells were resuspended in 100 nM of antibody (a saturating concentration to measure maximum binding on cells) and incubated at room temperature for 30 minutes. […] Cells were analyzed by flow cytometry with a Thermo Fisher Attune flow cytometer.
(§2) Data were analyzed using FlowJo software. MFI for each sample was calculated and exported into Graphpad Prism.

[2] = biological target: T2, hCLEC2D (human, UniProt Q9UHP7 1-191); assay: flow cytometry; 100 nM antibody on HEK293 cells expressing CLEC2D; Alexa Fluor 647 anti-human IgG; MFI
T2 construct: Overexpressed on HEK293 or K562 cells; the same id is used for endogenous CLEC2D on NALM6 and Raji cells; also called LLT1
T2 sequence: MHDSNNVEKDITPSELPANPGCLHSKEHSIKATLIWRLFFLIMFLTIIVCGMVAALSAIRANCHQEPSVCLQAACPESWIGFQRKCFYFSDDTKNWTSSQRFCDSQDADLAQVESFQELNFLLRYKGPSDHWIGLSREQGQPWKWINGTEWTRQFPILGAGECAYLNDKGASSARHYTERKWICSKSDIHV
Method: as §1, §2

[3] = biological target: T3, hCLEC12B (human, UniProt Q2HXU8 1-276); assay: flow cytometry; 100 nM antibody on HEK293 cells expressing CLEC12B; Alexa Fluor 647 anti-human IgG; MFI
T3 construct: Overexpressed on HEK293 cells
T3 sequence: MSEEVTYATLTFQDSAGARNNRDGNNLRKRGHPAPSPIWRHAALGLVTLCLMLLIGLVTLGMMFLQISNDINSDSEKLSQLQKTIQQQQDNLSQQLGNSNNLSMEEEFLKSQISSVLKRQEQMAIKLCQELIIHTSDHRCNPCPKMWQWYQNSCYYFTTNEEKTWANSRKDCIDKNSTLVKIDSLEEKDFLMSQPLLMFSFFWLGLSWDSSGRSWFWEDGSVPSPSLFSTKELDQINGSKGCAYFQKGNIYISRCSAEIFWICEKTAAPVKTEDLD
Method: as §1, §2

[4] = biological target: T2, hCLEC2D; assay: flow cytometry, HEK293 transfectants, 100 nM antibody;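 also: antibody applied at a saturating level and incubated with cells for 30 min at room temperature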
Method: as §1, §2

[5] = biological target: T1, hKLRF1; assay: as above
Method: as §1, §2

[6] = biological target: T3, hCLEC12B; assay: as above
Method: as §1, §2

[7] = biological target: T4, hKLRF2 (human, UniProt D3W0D1 1-207); assay: as above
T4 construct: Overexpressed on HEK293 cells
T4 sequence: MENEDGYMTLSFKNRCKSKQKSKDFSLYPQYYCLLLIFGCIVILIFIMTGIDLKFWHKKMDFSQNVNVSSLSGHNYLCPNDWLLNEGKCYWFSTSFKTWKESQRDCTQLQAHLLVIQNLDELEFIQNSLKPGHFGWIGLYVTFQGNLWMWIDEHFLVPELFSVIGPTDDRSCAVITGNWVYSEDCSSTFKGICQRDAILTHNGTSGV
Method: as §1, §2

[8] = biological target: T4, hKLRF2; assay: flow cytometry; 100 nM antibody on HEK293 cells expressing KLRF2; Alexa Fluor 647 anti-human IgG; MFI
Method: as §1, §2

[9] = biological target: T5, human HSP70 (human, UniProt P0DMV8 1-641); assay: polyspecificity ELISA, coated HSP70, 100 nM antibody
T5 construct: polyspecificity reagent

[10] = biological target: T4, hKLRF2; assay: flow cytometry; 100 nM antibody on HEK293 cells expressing KLRF2; Alexa Fluor 647 anti-human IgG; MFI; remark: listed apart in the source
Method: as §1, §2

[11] = biological target: T2, hCLEC2D; assay: flow cytometry; 100 nM antibody on HEK293 cells expressing CLEC2D; Alexa Fluor 647 anti-human IgG; MFI; remark: listed apart in the source
Method: as §1, §2

[12] = biological target: T3, hCLEC12B; assay: flow cytometry; 100 nM antibody on HEK293 cells expressing CLEC12B; Alexa Fluor 647 anti-human IgG; MFI; remark: listed apart in the source
Method: as §1, §2

[13] = biological target: T1, hKLRF1; assay: flow cytometry; 100 nM antibody on HEK293 cells expressing KLRF1; Alexa Fluor 647 anti-human IgG; MFI; remark: listed apart in the source
Method: as §1, §2

T5 sequence (P0DMV8 whole entry): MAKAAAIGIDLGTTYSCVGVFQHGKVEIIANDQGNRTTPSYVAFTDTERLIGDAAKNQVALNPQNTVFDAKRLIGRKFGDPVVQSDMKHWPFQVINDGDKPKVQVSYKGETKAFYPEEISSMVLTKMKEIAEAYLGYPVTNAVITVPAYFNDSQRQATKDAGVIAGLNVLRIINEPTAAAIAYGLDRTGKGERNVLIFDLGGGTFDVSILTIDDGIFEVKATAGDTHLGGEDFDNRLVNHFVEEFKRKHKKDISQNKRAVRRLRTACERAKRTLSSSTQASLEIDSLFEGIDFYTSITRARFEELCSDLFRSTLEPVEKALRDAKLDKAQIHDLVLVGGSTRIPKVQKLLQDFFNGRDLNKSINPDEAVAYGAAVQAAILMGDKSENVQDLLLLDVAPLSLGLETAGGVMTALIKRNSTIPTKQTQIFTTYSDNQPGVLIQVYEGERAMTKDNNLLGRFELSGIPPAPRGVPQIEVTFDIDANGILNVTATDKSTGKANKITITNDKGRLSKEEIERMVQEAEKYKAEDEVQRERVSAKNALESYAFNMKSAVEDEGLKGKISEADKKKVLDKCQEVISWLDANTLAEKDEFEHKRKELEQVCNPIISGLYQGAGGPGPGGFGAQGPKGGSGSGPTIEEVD

binding result [1]: no binding (tested: 100 nM)
binding result [2]: no binding (tested: 100 nM)
binding result [3]: no binding (tested: 100 nM)
% of CD161 binding [4]: 0.97%
% of CD161 binding [5]: 0.305%
% of CD161 binding [6]: 0.26%
% of CD161 binding [7]: 0.22%
binding result [8]: no binding (tested: 100 nM)
B2: Ab19 (antibody, human IgG1, V domains shown)
VH: QVQLVESGGGLVKPGGSLRLSCAASGFTFSQYYMSWIRQAPGKGLEWVSYISPSGATIYYADSVKGRFTISRDNAKNSLYLQMNSLRAEDTAVYYCARSLMATGTHLYFDLWGRGTLVTVSS
VL: DIQLTQSPSSVSASVGDRVTITCRASQGISSWLAWYQQKPGKAPKLLIYAASALQSGVPSRFSGSGSGTDFTLTISSLQPEDFATYYCQQVTSAPPYTFGGGTKVEIK
notes: IgG purified from yeast culture

Norm (signal over AdalimumAb) [9]: 3.71 fold
B4: Ustekinumab (antibody, V domains shown)
VH: EVQLVQSGAEVKKPGESLKISCKGSGYSFTTYWLGWVRQMPGKGLDWIGIMSPVDSDIRYSPSFQGQVTMSVDKSITTAYLQWNSLKASDTAMYYCARRRPGQGYFDFWGQGTLVTVSS
VL: DIQMTQSPSSLSASVGDRVTITCRASQGISSWLAWYQQKPEKAPKSLIYAASSLQSGVPSRFSGSGSGTDFTLTISSLQPEDFATYYCQQYNIYPYTFGQGTKLEIK

binding result [10]: no binding (tested: 100 nM)
binding result [11]: no binding (tested: 100 nM)
binding result [12]: no binding (tested: 100 nM)
% of CD161 binding [4]: 0.846%
% of CD161 binding [5]: 0.031%
% of CD161 binding [6]: 0.049%
% of CD161 binding [7]: 0.038%
binding result [13]: no binding (tested: 100 nM)
B8: Ab8 (antibody, human IgG1, V domains shown)
VH: EVQLLESGGGLVQPGGSLRLSCAASGFTFGTFAMSWVRQAPGKGLEWVSAISGVGGTTYYADSVKGRFTISRDNSKNTLYLQMNSLRAEDTAVYYCAKPLDSSFWADFDLWGRGTLVTVSS
VL: DIQLTQSPSSVSASVGDRVTITCRASQTISSWLAWYQQKPGKAPKLLIYAASSLQSGVPSRFSGSGSGTDFTLTISSLQPEDFATYYCQQQSVLPITFGGGTKVEIK
notes: as for B2

binding result [10]: no binding (tested: 100 nM)
binding result [11]: no binding (tested: 100 nM)
binding result [12]: no binding (tested: 100 nM)
% of CD161 binding [4]: 1.01%
% of CD161 binding [5]: 0.036%
% of CD161 binding [6]: 0.011%
% of CD161 binding [7]: 0.029%
binding result [13]: no binding (tested: 100 nM)
B10: Ab6 (antibody, human IgG1, V domains shown)
VH: B8 VH with T31Q, F32Y, G53A, V54A, F104Q
VL: B8 VL with T28G, S76N, Q91A, S92W
notes: as for B2

binding result [10]: no binding (tested: 100 nM)
binding result [11]: no binding (tested: 100 nM)
binding result [12]: no binding (tested: 100 nM)
% of CD161 binding [4]: 0.808%
% of CD161 binding [5]: 0.042%
% of CD161 binding [6]: 0.025%
% of CD161 binding [7]: 0.028%
binding result [13]: no binding (tested: 100 nM)
B11: Ab9 (antibody, human IgG1, V domains shown)
VH: B8 VH with G30S, T31P, F32Y, G53A, V54S
VL: B8 VL with T28G, Q91H

binding result [10]: no binding (tested: 100 nM)
binding result [11]: no binding (tested: 100 nM)
binding result [12]: no binding (tested: 100 nM)
% of CD161 binding [4]: 0.872%
% of CD161 binding [5]: 0.059%
% of CD161 binding [6]: 0.056%
% of CD161 binding [7]: 0.035%
binding result [13]: no binding (tested: 100 nM)
B12: Ab5 (antibody, human IgG1, V domains shown)
VH: B8 VH with T31Q, F32Y, G53A, Y59A, F104L, D109Q
VL: B8 VL with T28D, A50F, Q91A, V93K
notes: as for B2

More lines, now with the values behind:

B1: Ab17 (antibody, human IgG1, V domains shown)
VH: B2 VH with Q31D, A102S
VL: B2 VL with A53S, A94V
notes: as for B2
binding result [1]: no binding (tested: 100 nM)
binding result [2]: no binding (tested: 100 nM)
binding result [3]: no binding (tested: 100 nM)
% of CD161 binding [4]: 1.08%
% of CD161 binding [5]: 0.078%
% of CD161 binding [6]: 0.038%
% of CD161 binding [7]: 0.051%
binding result [8]: no binding (tested: 100 nM)

B3: Ab20 (antibody, human IgG1, V domains shown)
VH: B2 VH with K13Q, Y59A, A102S
VL: B2 VL with A53V, A94F, P95L
notes: as for B2
binding result [1]: no binding (tested: 100 nM)
binding result [2]: no binding (tested: 100 nM)
binding result [3]: no binding (tested: 100 nM)
% of CD161 binding [4]: 0.968%
% of CD161 binding [5]: 0.132%
% of CD161 binding [6]: 0.061%
% of CD161 binding [7]: 0.054%
binding result [8]: no binding (tested: 100 nM)

B5: Ab7 (antibody, human IgG1, V domains shown)
VH: B8 VH with T31Q, F32Y, G53A, V54A, F104Q
VL: B8 VL with T28G, S53F, Q91A
notes: as for B2
binding result [10]: no binding (tested: 100 nM)
binding result [11]: no binding (tested: 100 nM)
binding result [12]: no binding (tested: 100 nM)
% of CD161 binding [4]: 1.09%
% of CD161 binding [5]: 0.018%
% of CD161 binding [6]: 0.011%
% of CD161 binding [7]: 0.04%
binding result [13]: no binding (tested: 100 nM)

B6: Ab4 (antibody, human IgG1, V domains shown)
VH: B8 VH with G30E, T31R, F32Y, G53A, Y59K, F104L, L110A
VL: B8 VL with T28G, S53G, Q91A, V93Y
notes: as for B2
binding result [10]: no binding (tested: 100 nM)
binding result [11]: no binding (tested: 100 nM)
binding result [12]: no binding (tested: 100 nM)
% of CD161 binding [4]: 1.11%
% of CD161 binding [5]: 0.095%
% of CD161 binding [6]: 0.074%
% of CD161 binding [7]: 0.056%
binding result [13]: no binding (tested: 100 nM)

B7: Ab2 (antibody, human IgG1, V domains shown)
VH: B8 VH with T28A, G30S, F32Y, F104L
VL: B8 VL with T28G, A50Y, S56D, Q91A
notes: as for B2
binding result [10]: no binding (tested: 100 nM)
binding result [11]: no binding (tested: 100 nM)
binding result [12]: no binding (tested: 100 nM)
% of CD161 binding [4]: 0.863%
% of CD161 binding [5]: 0.032%
% of CD161 binding [6]: 0.057%
% of CD161 binding [7]: 0.049%
binding result [13]: no binding (tested: 100 nM)

B9: Ab1 (antibody, human IgG1, V domains shown)
VH: B8 VH with T28A, G30S, F32Y, G53A, V54A, F104L
VL: B8 VL with L4M, T28G, S30D, Q91A
notes: as for B2
binding result [10]: no binding (tested: 100 nM)
binding result [11]: no binding (tested: 100 nM)
binding result [12]: no binding (tested: 100 nM)
% of CD161 binding [4]: 0.975%
% of CD161 binding [5]: 0.073%
% of CD161 binding [6]: 0.04%
% of CD161 binding [7]: 0.036%
binding result [13]: no binding (tested: 100 nM)
